Measured values from US20210355235A1, “Compositions and Methods For Treating Cancer with Anti-Renalase antibodies and Anti-PD1 antibodies” (YALE UNIVERSITY, priority 2017, published 2021).
Entries after “also recorded” stand apart in the source; their conditions may differ.

Tests used:
Panc1 cells = test: western blot of p38 and STAT3 phosphorylation; format: cell-based, human
Text: FIG. 27, comprising FIGS. 27A through 27E, is a series of images and charts showing the interaction between RNLS and STAT3, and the mechanistic model of inhibition by m28-RNLS. FIG. 27A is an image showing activation of STAT3 by RNLS in Panc1 cells; Panc1 cells in culture treated with either BSA or RNLS, and STAT3 phosphorylation assessed by western blot; p-Ser^727-STAT3: phosphorylation at serine 727, p-Y^705-STAT3: phosphorylation at tyrosine 705; representative study. FIG. 27B is a chart depicting the quantification of STAT3 phosphorylation with RNLS; signals normalized to total STAT3; n=3, *=P<0.05. […] FIG. 27D is a chart showing the quantification of STAT3 phosphorylation with m28-RNLS; signals normalized to GAPDH loading control; n=3, *=P<0.05. FIG. 27E depicts the proposed mechanistic model for antitumor activity of m28-RNLS.

A375.S2 melanoma cells = test: cell viability, WST-1 assay; format: cell-based, human; conditions: WST-1, 72 hrs
Protocol: FIG. 19, comprising FIGS. 19A through 19D, is a series of images and charts showing that inhibition of RNLS signaling is cytotoxic to melanoma cells in vitro. […] FIG. 19B comprises two charts depicting relative cell viability: Left panel: Cells were treated with indicated antibodies for 72 hrs and cell viability was determined using WST-1; m28-RNLS (also known as 1D-28-4), m37-RNLS (also known as 1D-37-10): monoclonal antibodies raised against RNLS peptide RP220; Right panel: A375.S2 cells treated with increasing doses of m28-RNLS for 72 hrs and cell viability determined with a WST-1 assay; n=6, * indicates p<0.05 and ** indicates p<0.005. FIG. 19C comprises representative photos of A375.S2, SkMel28, and SkMel5 after 72 hrs incubation with either control rabbit IgG or m28-RNLS. FIG. 19D is a chart depicting relative cell viability, comprising amino acid (AA) sequence of RNLS peptide antagonist (RP220A).
Total cell number and percentage of live cells were assessed by trypan blue exclusion, and cells were counted using a BioRad TC10 automated cell counter. For additional studies, cell viability was determined using WST-1 reagent (Roche Diagnostics, Indianapolis, Ind., USA) according to the manufacturers' instruction. Absorbances were read using a microplate reader (Power Waves XS, BioTek Instruments, Winooski, Vt., USA).

[1] = system: YUMM mouse melanoma tumor; test: anti-PD1 resistant YUMM melanoma engrafted into immunocompetent C57B6 mice; format: in vivo; conditions: qPCR
Protocol: Experiments were conducted to assess the synergism between anti-RNLS antibody and anti-PD1 antibody against a tumor cell line that is resistant to anti-PD1 agents (i.e., YUMM) (FIG. 35). The anti-PD1 resistant mouse melanoma cell line (YUMM) was engrafted into immunocompetent C57B6 mice. After the engrafted YUMM tumor volume reached about 100 mm^3 (i.e., day 0), treatments were administered on days 0, 7, 9, and 12, as indicated by the arrows on […].
Experiments were conducted to measure PD1 and PD-L1 mRNA expression by qPCR in unfractioned tumor mass after treatment with anti-RNLS antibody (m28) alone, anti-PD1 antibody alone, and the combination of anti-RNLS antibody (m28) and anti-PD1 antibody (FIG. 36).
Experiments were conducted to measure CD8a mRNA expression by qPCR in unfractioned tumor mass after treatment with anti-RNLS antibody (m28) alone, anti-PD1 antibody alone, and the combination of anti-RNLS antibody (m28) and anti-PD1 antibody.

A375.S2 xenograft tumors = format: in vivo
Protocol: Briefly, tumor tissues were formalin-fixed, paraffin-embedded and cut into 5-m sections on glass slides. The slides were de-paraffinized and hydrated, followed by antigen retrieval in a pressure cooker containing 10 mM sodium citrate, pH6 buffer. The sections were blocked in 3% hydrogen peroxide for 30 min and 2.5% normal horse serum in PBS/0.1% Tween20 for 1 h followed by incubation with primary antibody and isotype control IgG overnight at 4° C. The following antibodies were used in this study: m28-RNLS at 500 ng/ml; goat polyclonal anti-RNLS at 250 ng/ml (Abcam, ab31291); rabbit monoclonal anti-CD68 (BDBioscience, 1:100); rabbit monoclonal anti-CD163 (AbD Serotec, 1:100); rabbit monoclonal anti-CD86 (Abcam, 1:100); rabbit monoclonal anti-Ki67 (Vector Lab, VP-RM04, 1:100); rabbit monoclonal anti-p21, […], and total Stat3 (Cell Signaling Technologies, #2947, 1:100, #9145, 1:400, and #4904, 1:400, respectively). ImmPRESS peroxidase-anti-rabbit IgG (Vector Laboratories, Burlingame, Calif., USA) was used to detect primary antibodies. […] Slides were observed and photographed using an Olympus BX41 microscope and camera (Olympus America Inc, Center Valley, Pa., USA).
Female athymic, 18-20 g nude mice (nu/nu) were obtained from Charles River (Willimantic, Conn.) and housed in microisolator cages, with autoclaved bedding in a specific pathogen-free facility, with a 12-h light/dark cycle.
Xenograft tumors were established by subcutaneous injection of A375.S2 cells (2×10^6 in 100 μl of PBS, pH 7.6). When the tumors reached a volume of 50-100 mm^3, the mice were divided into a control group (n=14 treated with rabbit IgG, 40 μg by intraperitoneal injection (IP) once weekly, and 40 ug subcutaneously (SQ) around the tumor site every 3 days), and an experimental group (n=14) that received m28-RNLS (40 μg IP, once weekly, and 40 ug SQ, every 3 days). Tumor size was measured with digital calipers and volume was calculated according to the formula (length×width^2)×π/2.
At the end of the study, the mice were sacrificed, the tumors were excised and immediately snap-frozen in liquid nitrogen and stored at −80° C. Apoptosis was examined using the TUNEL assay (Roche in situ Apoptosis Detection System), according to the manufacturer's instructions. Sections were examined by light microscopy and the apoptosis index was determined by counting ≥1000 cells in 10 randomly selected high-power fields (×200 magnification).

[2] = immunofluorescence / western blot

B1: m28-RNLS: rabbit anti-renalase monoclonal raised against RNLS peptide RP-220; heavy chain SEQ ID NO:9, light chain SEQ ID NO:10 (antibody)
heavy: METGLRWLLLVAVLKGVQCQSVEESGGRLVTPGTPLTLTCTVSGFSLSSFAVGWVRQAPGKGLEYIGIISSVGITRYASWAAGRFTISKTSTTVDLKITSPTTEDTATYFCARYGYSGDVNRLDLWGQGTLVTVSSGQPKAPSVFPLAPCCGDTPSSTVTLGCLVKGYLPEPVTVTWNSGTLTNGVRTFPSVRQSSGLYSLSSVVSVTSSSQPVTCNVAHPATNTKVDKTVAPSTCSKPTCPPPELLGGPSVFIFPPKPKDTLMISRTPEVTCVVVDVSQDDPEVQFTWYINNEQVRTARPPLREQQFNSTIRVVSTLPIAHQDWLRGKEFKCKVHNKALPAPIEKTISKARGQPLEPKVYTMGPPREELSSRSVSLTCMINGFYPSDISVEWEKNGKAEDNYKTTPAVLDSDGSYFLYSKLSVPTSEWQRGDVFTCSVMHEALHNHYTQKSISRSPGK
light: MDTRAPTQLLGLLLLWLPGATFAQVLTQTASPVSAAVGGTVTINCQASQSVYDNNNLAWYQQKPGQPPKQLIYGASTLASGVSSRFKGSGSGTQFTLTISGVQCDDAATYYCLGEFSCSSADCFAFGGGTEVVVKGDPVAPTVLIFPPSADLVATGTVTIVCVANKYFPDVTVTWEVDGTTQTTGIENSKTPQNSADCTYNLSSTLTLTSTQYNSHKEYTCKVTQGTTSVVQSFNRGDC
modifications: 1D-28-4 full length heavy chain amino acid; 1D-28-4 full length light chain amino acid
p38 MAPK phosphorylation (Panc1 cells; beginning at day 1 post treatment): sustained phosphorylation
STAT3 phosphorylation (p-Y705-STAT3) after antibody (Panc1 cells; up to 4 days): long-lasting and sustained decrease; also recorded: inhibits STAT3 phosphorylation
cell viability (A375.S2 melanoma cells): increasing levels of cytotoxicity in correlation with increasing treatment concentrations
CD8a mRNA expression in unfractioned tumor mass (cytotoxic T cells) [1]: activates cytotoxic T cells
number of CD163+ TAMs (A375.S2 xenograft tumors; immunofluorescence): considerable decrease; also recorded: decreases
RNLS protein expression in tumors (A375.S2 xenograft tumors; [2]): dramatic reduction; also recorded: decreases; also recorded: marked reduction
total and phosphorylated STAT3 (p-Y705-STAT3) in tumors (A375.S2 xenograft tumors; [2]): significantly decreased; also recorded: marked reduction
ratio of CD86+ to CD163+ TAMs (A375.S2 xenograft tumors; mouse, in vivo): increases
TUNEL positive cells (apoptosis) (A375.S2 xenograft tumors; n=14, control 4.3±0.2): 13.3±0.6 positive cells
p21 positive cells (cell cycle regulator, IHC) (A375.S2 xenograft tumors; n=14, control 12.2±1.0): 24.2±2.4 positive cells
Ki67 positive cells (cellular proliferation marker, IHC) (A375.S2 xenograft tumors; n=14, control 35.1±2.3): 13.4±3.0 positive cells/high power field
human (tumor) RNLS expression in tumor mass (A375.S2 xenograft tumors; qPCR, human specific primers): without affecting
mouse (endogenous) RNLS expression in tumor mass (A375.S2 xenograft tumors; qPCR, mouse specific primers): significant reduction
toxicity (overall animal health and activity) (A375.S2 xenograft tumors; throughout the study): did not appear to be toxic
tumor volume (A375.S2 xenograft tumors; vs control rabbit IgG, 40 μg IP weekly and 40 ug SQ every 3 days): decreased tumor volume at all points tested
